The record followed here is patent US20180244769A1 (Ablynx, published 2018).

In assay [1] the target is human P2X7 (hP2X7) (human) (UniProt Q99572). In words: cell-based or functional assay.
For assay [2], the target named is T1, mouse P2X7 (mP2X7) (mus musculus, UniProt Q9Z1M0 1-595).
T1 construct: Also used here for endogenous P2X7 on Yac-1 cells, primary mouse lymphocytes and macrophages
T1 chain: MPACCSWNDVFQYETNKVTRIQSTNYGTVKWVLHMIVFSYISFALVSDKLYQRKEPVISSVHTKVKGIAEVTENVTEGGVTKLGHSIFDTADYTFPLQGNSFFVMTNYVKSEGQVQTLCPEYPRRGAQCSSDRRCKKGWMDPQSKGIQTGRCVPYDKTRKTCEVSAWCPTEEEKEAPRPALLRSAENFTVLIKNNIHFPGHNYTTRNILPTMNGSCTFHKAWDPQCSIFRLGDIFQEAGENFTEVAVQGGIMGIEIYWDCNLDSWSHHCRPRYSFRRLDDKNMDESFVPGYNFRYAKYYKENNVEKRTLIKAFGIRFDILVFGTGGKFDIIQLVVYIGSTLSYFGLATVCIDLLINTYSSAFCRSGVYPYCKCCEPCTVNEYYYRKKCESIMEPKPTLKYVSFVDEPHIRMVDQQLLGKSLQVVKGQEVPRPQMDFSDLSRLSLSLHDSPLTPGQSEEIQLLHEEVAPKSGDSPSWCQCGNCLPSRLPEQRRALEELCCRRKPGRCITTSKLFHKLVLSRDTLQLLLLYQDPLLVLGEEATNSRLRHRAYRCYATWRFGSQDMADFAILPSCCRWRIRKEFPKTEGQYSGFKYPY
Kind of assay: flow cytometry, HEK cells co-transfected with GFP and mP2X7, detection with Alexa647 anti-mouse IgG. An excerpt:
(§1) In order to verify the specificity of the selected Nbs and to determine whether the Nbs would bind also to mouse P2X7 or rat P2X7, HEK cells were co-transfected with expression constructs for GFP and either hP2X7, mP2X7, or rP2X7. Twenty four hours post transfection cells were stained with Nb-Fc fusion proteins or mAb L4 before FACS analyses (FIG. 3). […] By comparison, previously described Nbs 13A7 and 14D5 (WO 2010/070145) recognize mP2X7, but not hP2X7 or rP2X7, mAb L4 recognizes hP2X7 and rP2X7, but not mP2X7.
(In flow cytometry, cells or beads pass a laser one at a time.)

In assay [3] the target is T2, rat P2X7 (rP2X7) (Rattus norvegicus, UniProt Q64663 1-595).
T2 sequence: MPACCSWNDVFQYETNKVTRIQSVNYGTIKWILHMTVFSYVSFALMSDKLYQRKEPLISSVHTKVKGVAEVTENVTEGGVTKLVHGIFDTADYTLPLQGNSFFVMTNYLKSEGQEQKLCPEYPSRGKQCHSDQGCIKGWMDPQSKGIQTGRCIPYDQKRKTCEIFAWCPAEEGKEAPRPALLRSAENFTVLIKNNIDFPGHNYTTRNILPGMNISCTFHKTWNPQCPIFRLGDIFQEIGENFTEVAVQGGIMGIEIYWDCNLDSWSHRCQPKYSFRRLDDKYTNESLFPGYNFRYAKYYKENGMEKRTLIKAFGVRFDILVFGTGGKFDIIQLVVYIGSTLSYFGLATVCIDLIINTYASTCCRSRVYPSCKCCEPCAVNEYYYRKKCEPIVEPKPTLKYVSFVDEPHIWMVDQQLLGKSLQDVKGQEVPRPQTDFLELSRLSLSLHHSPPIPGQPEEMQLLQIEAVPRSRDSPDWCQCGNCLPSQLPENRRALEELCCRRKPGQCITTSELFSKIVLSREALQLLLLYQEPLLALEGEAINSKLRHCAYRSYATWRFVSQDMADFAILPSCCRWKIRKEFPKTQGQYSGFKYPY
In words: flow cytometry, HEK cells co-transfected with GFP and rP2X7, detection with Alexa647 anti-mouse IgG.
Description: as §1

Assay [4] has as its target human P2X7 (hP2X7) (human) (UniProt Q99572). Kind of assay: flow cytometry of whole blood of one donor, gate on lymphocytes, Alexa647 conjugate with anti-CD4; unblocked = pre-incubated with control 1067-Fc.
Assay [5] shares this target. In words: flow cytometry, HEK cells co-transfected with GFP and hP2X7, bound antibody detected with Alexa647 anti-mouse IgG; other quadrants: UL 0.8, LL 12, LR 15.
The target is the same in assay [6]. Kind of assay: flow cytometry of whole blood of one donor, gate on lymphocytes, Alexa647 conjugate with anti-CD4; unblocked = pre-incubated with control 1067-Fc; lower quadrants 24 and 19.
The target is the same in assay [7]. In words: flow cytometry of whole blood of one donor, gate on lymphocytes, Alexa647 conjugate with anti-CD4; blocked = pre-incubated with excess unlabelled Nb-Fc (legend: 3 ug each of 1c113-Fc and 3c23-Fc); lower quadrants 44 and 54.
Assay [8] shares this target. In words: flow cytometry, HEK cells co-transfected with GFP and hP2X7, bound antibody detected with Alexa647 anti-mouse IgG; other quadrants: UL 0.7, LL 12, LR 15.
Assay [9] shares this target. In words: flow cytometry of whole blood of one donor, gate on lymphocytes, Alexa647 conjugate with anti-CD4; unblocked = pre-incubated with control 1067-Fc; lower quadrants 23 and 19.
The target is the same in assay [10]. Kind of assay: flow cytometry of whole blood of one donor, gate on lymphocytes, Alexa647 conjugate with anti-CD4; blocked = pre-incubated with excess unlabelled Nb-Fc (legend: 3 ug each of 1c113-Fc and 3c23-Fc); lower quadrants 44 and 55.
Assay [11] shares this target. Kind of assay: flow cytometry, HEK cells co-transfected with GFP and hP2X7, bound antibody detected with Alexa647 anti-mouse IgG; other quadrants: UL 72, LL 26, LR 0.5.
Assay [12] shares this target. Kind of assay: flow cytometry, HEK cells co-transfected with GFP and hP2X7, bound antibody detected with Alexa647 anti-mouse IgG; other quadrants: UL 1.5, LL 16, LR 11.
Assay [13] has the same target. Kind of assay: flow cytometry, HEK cells co-transfected with GFP and hP2X7, bound antibody detected with Alexa647 anti-mouse IgG; other quadrants: UL 71, LL 27, LR 0.5.

Sequence of human P2X7 (hP2X7) (human) (Q99572 whole entry): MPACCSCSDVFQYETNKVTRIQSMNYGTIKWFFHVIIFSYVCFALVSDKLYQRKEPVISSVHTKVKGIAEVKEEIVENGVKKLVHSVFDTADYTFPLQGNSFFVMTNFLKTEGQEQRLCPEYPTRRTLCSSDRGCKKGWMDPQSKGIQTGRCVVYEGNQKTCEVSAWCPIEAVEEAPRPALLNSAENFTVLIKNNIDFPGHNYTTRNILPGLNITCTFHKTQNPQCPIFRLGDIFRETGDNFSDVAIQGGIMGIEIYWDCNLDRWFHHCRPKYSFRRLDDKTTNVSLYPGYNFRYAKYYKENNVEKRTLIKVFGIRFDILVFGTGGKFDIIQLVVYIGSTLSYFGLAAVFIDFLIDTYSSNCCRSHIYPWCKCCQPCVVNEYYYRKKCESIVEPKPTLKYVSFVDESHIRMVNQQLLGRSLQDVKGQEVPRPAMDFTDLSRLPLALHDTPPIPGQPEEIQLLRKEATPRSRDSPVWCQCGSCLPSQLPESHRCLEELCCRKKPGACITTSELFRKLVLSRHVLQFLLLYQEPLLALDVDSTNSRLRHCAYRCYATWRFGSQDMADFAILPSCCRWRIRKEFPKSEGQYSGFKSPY

B1: 1c113-Fc (pME 1c113-mIgG1Fc_LSF) (Fc fusion)
chain: DYKDDDDKRSMAEVQLVESGGGLVQPGGSLTLSCAASGIAFNYYSMSWHRQAPGKQRTLVADISPGGHTEYEDSVKGRFTISRDNFKNTMTLHMNSLKPEDTAVYFCAARLRFEVSSNYWGQGTQVTVSSLEPRDCGCKPCICTVPEVSSEVSSVFIFPPKPKDVLLISLFPKVTCVVVDISKDDPEVQFSWFVDDVEVHTAQTQPREEQFNSTFRSVSELPIMHQDWLNGKEFKCRVNSAAFPAPIEKTISKTKGRPKAPQVYTIPPPKEQMAKDKVSLTCMITDFFPEDITVEWQWNGQPAENYKNTQPIMDTDGSYFVYSKLNVQKSNWEAGNTFTCSVLHEGLHNHHTEKSLSHSPGKGK
notes: Used unconjugated or conjugated to Alexa647; also called WD1c113Fc; Nb 1c113-Fc
As for B1, in [1], the IC50 [nM], blockade of L-selectin (CD62L) shedding in transfected HEK cells, 4 mM ATP was greater than 35 nM and the IC50 [ng/ml], blockade of L-selectin (CD62L) shedding in transfected HEK cells, 4 mM ATP was greater than 2800 ng/mL. In addition, in assay [2], the binding result is given as “no binding”. In assay [3], the binding result was “no binding”. In assay [4], the MFI (AF647) of CD4+ lymphocytes, unblocked worked out at 17 and the MFI (AF647) of CD4- lymphocytes, unblocked is 14. The % of cells in the GFP+ / anti-mIgG A647+ quadrant (upper right) in [5] amounted to 72%. In assay [6], this molecule came in with a % of lymphocytes in the CD4+ / AF647+ quadrant (upper right), unblocked of 35% and a % of lymphocytes in the CD4- / AF647+ quadrant (upper left), unblocked of 22%. In [7], this molecule had a % of lymphocytes in the CD4+ / AF647+ quadrant (upper right), blocked of 0.7% and a % of lymphocytes in the CD4- / AF647+ quadrant (upper left), blocked of 0.8%.

B2: Nb 1c81 (monovalent) (VHH)
VHH: EVQLVESGGKLVQAGGSLRLSCSASGRTFSFSTSTMGWFRQAPGKELEFVAAIDWSDFNTYYADSVKGRFTISRHNPRNSVYLQLNSLKPEDTAVYYCAAHSETRGGTRYFDRPSLYNYWGQGTQVTVSS
In assay [1], B2 yielded an IC50 [nM], blockade of L-selectin (CD62L) shedding in transfected HEK cells, 4 mM ATP of 100 nM and an IC50 [ng/ml], blockade of L-selectin (CD62L) shedding in transfected HEK cells, 4 mM ATP of 1500 ng/mL.

B3: Nb 1c113 (monovalent) (VHH)
VHH: EVQLVESGGGLVQPGGSLTLSCAASGIAFNYYSMSWHRQAPGKQRTLVADISPGGHTEYEDSVKGRFTISRDNFKNTMTLHMNSLKPEDTAVYFCAARLRFEVSSNYWGQGTQVTVSS
Turning to B3, in [1], the IC50 [nM], blockade of L-selectin (CD62L) shedding in transfected HEK cells, 4 mM ATP was greater than 185 nM and the IC50 [ng/ml], blockade of L-selectin (CD62L) shedding in transfected HEK cells, 4 mM ATP was greater than 2800 ng/mL.

B4: 3c23-Fc (Nb 3c23 fused to the Fc-domain of mouse IgG1) (Fc fusion)
chain: EVQLVESGGGLVQAGGSLRLSCAASGRTFRHYAMGWFRQAPGKEREFVAAISSYGSTDYGDSVKGRFTISRDDAKNTVPLQMNSLKPEDTAVYYCAAADETLGAVPNFRLHEKYEYEYWGQGTQVTVSSA
notes: Bivalent N-terminally FLAG-tagged Nb-Fc fusion protein made in HEK cells; Used unconjugated or conjugated to Alexa647; also called WD3c23Fc; Nb 3c23-Fc; not shown: N-terminal FLAG tag; Fc-domain of mouse IgG1
As for B4, in assay [1], the IC50 [nM], blockade of L-selectin (CD62L) shedding in transfected HEK cells, 4 mM ATP is 0.6 nM; the IC50 [ng/ml], blockade of L-selectin (CD62L) shedding in transfected HEK cells, 4 mM ATP stood at 50 ng/mL; the fold enhanced potency to block activation of P2X7, Nb-Fc fusion protein against its monovalent counterpart lay within 5 to 20 fold; the molar inhibition potency relative to monovalent 3c23 (CD62L shedding) amounted to 4 fold. Moreover, the binding result in assay [2] is given as “no binding”. Further, the binding result in assay [3] is given as “no binding”. In addition, in [4], the MFI (AF647) of CD4+ lymphocytes, unblocked stood at 17 and the MFI (AF647) of CD4- lymphocytes, unblocked amounted to 14. In addition, the % of cells in the GFP+ / anti-mIgG A647+ quadrant (upper right) in assay [8] was found to be 72%. In addition, in [9], the % of lymphocytes in the CD4+ / AF647+ quadrant (upper right), unblocked is 35% and the % of lymphocytes in the CD4- / AF647+ quadrant (upper left), unblocked amounted to 24%. In assay [10], this molecule displayed a % of lymphocytes in the CD4+ / AF647+ quadrant (upper right), blocked of 0.4% and a % of lymphocytes in the CD4- / AF647+ quadrant (upper left), blocked of 0.7%.

B5: Nb 3c23 (monovalent) (VHH)
VHH: EVQLVESGGGLVQAGGSLRLSCAASGRTFRHYAMGWFRQAPGKEREFVAAISSYGSTDYGDSVKGRFTISRDDAKNTVPLQMNSLKPEDTAVYYCAAADETLGAVPNFRLHEKYEYEYWGQGTQVTVSS
In assay [1], B5 had an IC50 [nM], blockade of L-selectin (CD62L) shedding in transfected HEK cells, 4 mM ATP of 2.7 nM and an IC50 [ng/ml], blockade of L-selectin (CD62L) shedding in transfected HEK cells, 4 mM ATP of 40 ng/mL.

B6: 14D5-Fc (Nb-Fc fusion protein of Nb 14D5) (Fc fusion)
chain: KVQLVESGGGLVQAGGSLRLSCAASGSPISSYAMGWYRQAPGKPRELVARIYTGGTAWYEDSVKGRFTISRDNAQNTVYLQMNSLKSEDTAVYYCHGRVRYDYWGQGTQVTVSS
notes: Nb-Fc fusion; not shown: Fc part
Consider B6, for which the binding result in assay [3] is given as “no binding”. Further, the % of cells in the GFP+ / anti-mIgG A647+ quadrant (upper right) in assay [11] was 1.2%.

B7: 1c81-Fc (Nb 1c81 fused to the Fc-domain of mouse IgG1) (Fc fusion, not shown: small tags and cut ends; a dimerising Fc or GST)
chain: EVQLVESGGKLVQAGGSLRLSCSASGRTFSFSTSTMGWFRQAPGKELEFVAAIDWSDFNTYYADSVKGRFTISRHNPRNSVYLQLNSLKPEDTAVYYCAAHSETRGGTRYFDRPSLYNYWGQGTQVTVSSA
Turning to B7, in assay [1], the IC50 [nM], blockade of L-selectin (CD62L) shedding in transfected HEK cells, 4 mM ATP was determined as 5 nM; the IC50 [ng/ml], blockade of L-selectin (CD62L) shedding in transfected HEK cells, 4 mM ATP is 400 ng/mL; the fold enhanced potency to block activation of P2X7, Nb-Fc fusion protein against its monovalent counterpart lay in the range of 5 to 20 fold; the molar inhibition potency relative to monovalent 1c81 (CD62L shedding) was determined as 20 fold. The molecule also gave a % of cells in the GFP+ / anti-mIgG A647+ quadrant (upper right) in [12] of 71%.

B8: 13A7-Fc (Nb-Fc fusion protein of Nb 13A7) (Fc fusion)
chain: EVQLVESGGGLVQPGESLRLSCTASRFMLDYYDIGWFRQAPGKEREGVSCRFTNDGSTAYADSVKGRFTISRDIVKHTVYLQMNSLQPEDTAVYYCAAGPLTKRRQCVPGDFSMDFWGEGTLVTVSS
notes: Nb-Fc fusion; also called fluorochrome-conjugated Nb 13A7; not shown: Fc part
As to B8, the binding result in [3] is “no binding”. The molecule also gave a % of cells in the GFP+ / anti-mIgG A647+ quadrant (upper right) in assay [13] of 1.2%.
